In patent US20040235717:

Tests used:
mtAR S790A = mtAR S790A (UniProt P10275)
mtAR S210A = mtAR S210A (UniProt P10275)
mtAR S210A, sequence (P10275 whole entry, looked up, stated change not applied): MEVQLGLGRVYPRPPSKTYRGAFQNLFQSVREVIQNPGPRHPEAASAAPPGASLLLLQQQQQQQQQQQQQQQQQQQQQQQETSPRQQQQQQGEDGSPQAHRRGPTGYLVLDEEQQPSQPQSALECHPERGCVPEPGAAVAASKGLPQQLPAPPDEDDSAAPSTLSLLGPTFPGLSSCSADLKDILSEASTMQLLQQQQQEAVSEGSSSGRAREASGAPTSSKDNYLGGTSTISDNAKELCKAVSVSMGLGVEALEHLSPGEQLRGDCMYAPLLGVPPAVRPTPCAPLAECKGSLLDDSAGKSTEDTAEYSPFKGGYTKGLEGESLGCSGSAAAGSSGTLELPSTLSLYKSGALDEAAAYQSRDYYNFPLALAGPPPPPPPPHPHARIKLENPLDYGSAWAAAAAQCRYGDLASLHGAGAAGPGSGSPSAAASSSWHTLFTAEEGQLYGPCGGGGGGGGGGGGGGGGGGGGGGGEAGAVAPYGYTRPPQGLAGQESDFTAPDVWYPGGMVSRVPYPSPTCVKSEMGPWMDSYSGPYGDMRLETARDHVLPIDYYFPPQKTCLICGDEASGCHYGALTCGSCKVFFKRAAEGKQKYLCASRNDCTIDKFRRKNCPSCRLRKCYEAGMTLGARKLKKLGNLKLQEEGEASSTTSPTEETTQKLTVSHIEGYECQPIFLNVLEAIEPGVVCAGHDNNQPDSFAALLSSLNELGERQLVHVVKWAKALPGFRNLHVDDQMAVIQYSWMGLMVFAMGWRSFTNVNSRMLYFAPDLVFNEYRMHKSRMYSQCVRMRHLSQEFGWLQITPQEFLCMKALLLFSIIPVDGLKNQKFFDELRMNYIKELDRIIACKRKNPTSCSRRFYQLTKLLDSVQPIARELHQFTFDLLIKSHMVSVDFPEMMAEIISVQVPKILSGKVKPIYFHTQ

mtAR S790A, sequence (P10275 whole entry, looked up, stated change not applied): as above

## Akt/PKB (endogenous, LNCaP cells)
mtAR S790A
  in vitro phosphorylation of immunoprecipitated AR by Akt: the degree of Akt phosphorylation of mtARS210A and mtARS790A, as compared to wtAR, was reduced significantly
  in vitro phosphorylation of immunoprecipitated AR by Akt/PKB: the degree of phosphorylation of ARS210A and ARS790A by Akt/PKB, as compared to wtAR, was reduced significantly
mtAR S210A
  in vitro phosphorylation of immunoprecipitated AR by Akt: the degree of Akt phosphorylation of mtARS210A and mtARS790A, as compared to wtAR, was reduced significantly
  in vitro phosphorylation of immunoprecipitated AR by Akt/PKB: the degree of phosphorylation of ARS210A and ARS790A by Akt/PKB, as compared to wtAR, was reduced significantly
